Reference: patent EP4667489A1 (Kyinno Biotechnology Co., Ltd., dated 2025)
Changes are numbered by the printed parent chain. Read-outs that look alike come from different tables or passages of the source. Blank lines part the entries; values can stand above or below the binder they belong to.

Experiments:
[1] = biological target: T1, human PD1 expressed on 293T-PD1 cells (human, UniProt Q15116 25-288); test: flow cytometry on 293T-PD1 cells
T1 construct: whole, on cells; 293T cells stably expressing human PD1 (Kyinno KC-0204); also called PD1-expressing cells; Jurkat NFAT-PD1-luc cells

[2] = biological target: T2, human LAG3 expressed on 293T-LAG3 cells (human, UniProt P18627 23-525); test: flow cytometry on 293T-LAG3 cells
T2 construct: whole, on cells; 293T cells stably expressing human LAG3 (Kyinno KC-0214); also called LAG3-expressing cells
T2 sequence (looked up): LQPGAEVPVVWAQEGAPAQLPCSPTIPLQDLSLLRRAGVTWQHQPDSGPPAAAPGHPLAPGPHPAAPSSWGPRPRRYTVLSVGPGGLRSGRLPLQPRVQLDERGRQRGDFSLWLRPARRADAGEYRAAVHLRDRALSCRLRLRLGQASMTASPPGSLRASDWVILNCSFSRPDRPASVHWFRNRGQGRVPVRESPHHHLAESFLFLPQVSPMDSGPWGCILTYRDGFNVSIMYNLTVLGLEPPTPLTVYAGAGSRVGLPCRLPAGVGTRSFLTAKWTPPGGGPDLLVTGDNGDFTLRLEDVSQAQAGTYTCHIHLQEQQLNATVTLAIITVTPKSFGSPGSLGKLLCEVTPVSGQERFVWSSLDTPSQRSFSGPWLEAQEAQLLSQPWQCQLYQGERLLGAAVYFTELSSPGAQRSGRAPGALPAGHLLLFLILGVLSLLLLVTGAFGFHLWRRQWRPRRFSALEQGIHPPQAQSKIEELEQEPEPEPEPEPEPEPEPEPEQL

[3] = biological target: T3, PD1-His (Kyinno, Cat No.: KP-1023) (UniProt Q15116 25-167, limits assumed); test: BLI (ForteBio Octet), PD1-His as mobile phase
T3 construct: bought protein; not shown: His tag

[4] = biological target: T4, LAG3-His (ACRO, Cat No.: LA3-H5222) (UniProt P18627 23-450); test: BLI (ForteBio Octet), LAG3-His as mobile phase
T4 construct: bought protein; not shown: His tag
T4 sequence (looked up): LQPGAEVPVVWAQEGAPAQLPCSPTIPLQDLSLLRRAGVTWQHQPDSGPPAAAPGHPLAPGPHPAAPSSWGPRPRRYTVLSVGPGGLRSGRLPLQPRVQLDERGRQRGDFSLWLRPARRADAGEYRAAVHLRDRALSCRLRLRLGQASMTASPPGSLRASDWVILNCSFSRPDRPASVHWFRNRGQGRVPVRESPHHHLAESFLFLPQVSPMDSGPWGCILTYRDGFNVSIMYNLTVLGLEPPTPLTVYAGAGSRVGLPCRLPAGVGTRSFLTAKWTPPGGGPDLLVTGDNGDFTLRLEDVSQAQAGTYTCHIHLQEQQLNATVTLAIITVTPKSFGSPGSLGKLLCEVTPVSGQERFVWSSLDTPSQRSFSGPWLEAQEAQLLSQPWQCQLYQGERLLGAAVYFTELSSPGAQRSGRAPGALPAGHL

[5] = biological target: T5, LAG3-hFc (fusion protein of the human LAG3 extracellular domain and human IgG1-Fc) (human, UniProt P18627 23-450); test: flow cytometry, blocking of LAG3 fusion protein binding to Daudi cells (procedure of Example 5)
T5 construct: extracellular domain; not shown: human IgG1-Fc, Genbank CAC20454.1
T5 sequence (looked up): T4 sequence (looked up)

[6] = biological target: T6, PD1-hFc (fusion protein of the human PD1 extracellular domain and human IgG1-Fc) (human, UniProt Q15116 25-170); test: flow cytometry, blocking of PD1 fusion protein binding to 293T-PDL1 cells (procedure of Example 8)
T6 construct: extracellular domain; also called human PD1-hFc; not shown: human IgG1-Fc, Genbank CAC20454.1

[7] = biological target: T1, human PD1 expressed on 293T-PD1 cells; test: flow cytometry on 293T-PD1 cells; remark: listed apart in the source
[8] = biological target: T2, human LAG3 expressed on 293T-LAG3 cells; test: flow cytometry on 293T-LAG3 cells; remark: listed apart in the source
[9] = biological target: T3, PD1-His (Kyinno, Cat No.: KP-1023); test: BLI (ForteBio Octet), PD1-His as mobile phase; remark: listed apart in the source
[10] = biological target: T4, LAG3-His (ACRO, Cat No.: LA3-H5222); test: BLI (ForteBio Octet), LAG3-His as mobile phase; remark: listed apart in the source
[11] = biological target: T5, LAG3-hFc (fusion protein of the human …); test: flow cytometry, blocking of LAG3 fusion protein binding to Daudi cells (procedure of Example 5); remark: listed apart in the source
[12] = biological target: T6, PD1-hFc (fusion protein of the human …); test: flow cytometry, blocking of PD1 fusion protein binding to 293T-PDL1 cells (procedure of Example 8); remark: listed apart in the source

T1 sequence (Q15116 25-288): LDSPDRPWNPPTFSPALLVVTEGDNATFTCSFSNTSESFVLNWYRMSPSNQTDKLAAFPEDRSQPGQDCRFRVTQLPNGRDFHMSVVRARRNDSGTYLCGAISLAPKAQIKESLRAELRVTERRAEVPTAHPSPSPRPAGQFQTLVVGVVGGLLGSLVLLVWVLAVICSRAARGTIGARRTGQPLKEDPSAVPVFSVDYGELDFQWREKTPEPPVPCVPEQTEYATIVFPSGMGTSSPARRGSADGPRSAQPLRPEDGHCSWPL
T6 sequence (Q15116 25-170): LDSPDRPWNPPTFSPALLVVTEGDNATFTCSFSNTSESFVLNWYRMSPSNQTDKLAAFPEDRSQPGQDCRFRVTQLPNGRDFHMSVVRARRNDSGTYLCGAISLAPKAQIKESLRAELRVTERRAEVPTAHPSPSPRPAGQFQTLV
T3 sequence (Q15116 25-167 limits assumed): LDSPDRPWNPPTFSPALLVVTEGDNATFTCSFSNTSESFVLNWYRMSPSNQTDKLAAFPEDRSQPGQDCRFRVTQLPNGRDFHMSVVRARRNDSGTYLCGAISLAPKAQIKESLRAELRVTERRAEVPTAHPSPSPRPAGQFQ

EC50 [1]: 0.651 µg/mL
EC50 [2]: 0.228 µg/mL
Kd [3]: 4.73 nM
koff [3]: 0.00105 s⁻¹
kon [3]: 222000 M⁻¹ s⁻¹
Kd [4]: 0.168 nM
koff [4]: 0.000195 s⁻¹
kon [4]: 1.16e+06 M⁻¹ s⁻¹
IC50 [5]: 0.879 µg/mL
IC50 [6]: 0.435 µg/mL
B1: KA-1835 H28G27V4×H107D1210-hIgG4M (bispecific antibody)
heavy 1: QVQLVESGGGLVKPGGSLRLSCAASGFTFSDYGMHWIRQAPGKGLEWVAYISSGSYTIYYADTVRDRFTISRDSAKNSLYLQMNSLRAEDTAVYYCVRRGPGYFGSTALDYWGQGTTVTVSSASTKGPSVFPLAPCSRSTSESTAALGCLVKDYFPEPVTVSWNSGALTSGVHTFPAVLQSSGLYSLSSVVTVPSSSLGTKTYTCNVDHKPSNTKVDKRVESKYGPPCPPCPAPEFLGGPSVFLFPPKPKDTLMISRTPEVTCVVVDVSQEDPEVQFNWYVDGVEVHNAKTKPREEQFNSTYRVVSVLTVLHQDWLNGKEYKCKVSNKGLPSSIEKTISKAKGQPREPQVCTLPPSQEEMTKNQVSLSCAVKGFYPSDIAVEWESNGQPENNYKTTPPVLDSDGSFFLVSRLTVDKSRWQEGNVFSCSVMHEALHNHYTQKSLSLSLG
heavy 2: QVQLQESGPGLVKPSETLSLTCTVSGYSFTSGYYWNWIRQPPGKGLEWIGYVSYFGTANYNPALKNRVTISRDTSKNQFSLKLSSVTAADTAVYYCARGEEWDWSFDVWGQGTTVTVSSASTKGPSVFPLAPCSRSTSESTAALGCLVKDYFPEPVTVSWNSGALTSGVHTFPAVLQSSGLYSLSSVVTVPSSSLGTKTYTCNVDHKPSNTKVDKRVESKYGPPCPPCPAPEFLGGPSVFLFPPKPKDTLMISRTPEVTCVVVDVSQEDPEVQFNWYVDGVEVHNAKTKPREEQFNSTYRVVSVLTVLHQDWLNGKEYKCKVSNKGLPSSIEKTISKAKGQPREPQVYTLPPCQEEMTKNQVSLWCLVKGFYPSDIAVEWESNGQPENNYKTTPPVLDSDGSFFLYSRLTVDKSRWQEGNVFSCSVMHEALHNHYTQKSLSLSLG
light: DIQITQSPSSLSASVGDRVTITCSATSGVSYMHWYQQKPGKAPKRLIYDTSRLASGVPSRFSGSGSGTDYTLTISSLQPEDFATYYCQQWSSNPPYTFGQGTRLEIKRTVAAPSVFIFPPSDEQLKSGTASVVCLLNNFYPREAKVQWKVDNALQSGNSQESVTEQDSKDSTYSLSSTLTLSKADYEKHKVYACEVTHQGLSSPVTKSFNRGEC
notes: PD1×LAG3 bispecific; first heavy chain targets PD1 (hIgG4 Hole), second targets LAG3 (hIgG4 Knob); common light chain 1

EC50 [1]: 0.33 µg/mL
EC50 [2]: 0.557 µg/mL
Kd [3]: 6.55 nM
koff [3]: 0.00116 s⁻¹
kon [3]: 178000 M⁻¹ s⁻¹
Kd [4]: 0.18 nM
koff [4]: 0.000266 s⁻¹
kon [4]: 1.48e+06 M⁻¹ s⁻¹
IC50 [5]: 0.972 µg/mL
IC50 [6]: 0.302 µg/mL
B2: KA-1836 H107D1210×H28G27V4-hIgG4M (bispecific antibody)
heavy 1: B1 heavy 1 with C351Y, S356C, S368W, A370L, V409Y
heavy 2: B1 heavy 2 with Y348C, C353S, W365S, L367A, Y406V
light: B1 light
notes: PD1×LAG3 bispecific; first heavy chain targets PD1 (hIgG4 Knob), second targets LAG3 (hIgG4 Hole); common light chain 1

EC50 [7]: 0.3 µg/mL
EC50 [8]: 0.0931 µg/mL
Kd [9]: 6.87 nM
koff [9]: 0.00255 s⁻¹
kon [9]: 372000 M⁻¹ s⁻¹
Kd [10]: 0.175 nM
koff [10]: 0.000111 s⁻¹
kon [10]: 633000 M⁻¹ s⁻¹
IC50 [11]: 0.88 µg/mL
IC50 [12]: 0.232 µg/mL
B3: KA-1793 H28G27V4×H107D1210-hIgG4M (bispecific antibody)
heavy 1: B1 heavy 1
heavy 2: B1 heavy 2
light: B1 light with T26S, G28S, R52K
notes: PD1×LAG3 bispecific; first heavy chain targets PD1 (hIgG4 Hole), second targets LAG3 (hIgG4 Knob); common light chain 2
